For one substance, more dimer in the C10-treated sample than in the untreated one and stoichiometry N results are on record in PMC10976570.

In the assay the target is wild-type PlaF (phospholipase A1 PlaF, PA2949) from Pseudomonas aeruginosa (Pseudomonas aeruginosa). The assay can be described thus: cross-linking.

On to “wild-type PlaF (phospholipase A1 PlaF, PA2949) from Pseudomonas aeruginosa (enzyme)”, for which the more dimer in the C10-treated sample than in the untreated one came to 70% and the stoichiometry N (usually a count of units in the complex or per binding partner) was 2.
